Measured values from paper PMC7423246, “A Peptide–Lectin Fusion Strategy for Developing a Glycan Probe for Use in Various Assay Formats” (Chemosensors (Basel, Switzerland), 2019).

Molecular target: soy bean agglutinin conjugated to HRP (soy bean), P05046
Assay: ELISA; soy bean agglutinin conjugated to HRP exposed to serial dilutions of PFA; colorimetric signal with TMB

soy bean agglutinin conjugated to HRP (soy bean), P05046, sequence (P05046 33-285): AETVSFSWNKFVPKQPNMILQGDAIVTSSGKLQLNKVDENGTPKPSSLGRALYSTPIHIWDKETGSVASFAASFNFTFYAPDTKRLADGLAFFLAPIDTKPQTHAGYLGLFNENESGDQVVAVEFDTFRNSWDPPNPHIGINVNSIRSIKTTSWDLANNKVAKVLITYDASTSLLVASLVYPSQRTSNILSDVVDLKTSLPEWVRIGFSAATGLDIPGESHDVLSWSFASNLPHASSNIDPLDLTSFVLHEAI

B1: Pseudomonas fluorescens agglutinin (PFA) (natural protein)
chain: MSKYAVANQWGGSSAPWHPGGTWVLGARDNQNVVAIEIKSGDGGKSFTGTMTYAGEGPIGFKAQRTGQNQYNVENQWGGNDAPWHPGGKWVIGGRDNQNVIALSVTSSDGGKNLSGTNTYANEGPIGFRGQIEVSHPQAPF
modifications: not checked
Kd: 4 nM
